From publication PMC6721724, “The Intrinsically Disordered C-Terminal Domain Triggers Nucleolar Localization and Function Switch of PARN in Response to DNA Damage” (Cells, 2019)

Target: the molecule itself
Assay: cross-linking; purified protein cross-linked with 0.03% glutaraldehyde, analysed by SDS-PAGE

B1: full-length PARN, recombinant (enzyme, human, UniProt O95453 1-639, looked up)
chain: MEIIRSNFKSNLHKVYQAIEEADFFAIDGEFSGISDGPSVSALTNGFDTPEERYQKLKKHSMDFLLFQFGLCTFKYDYTDSKYITKSFNFYVFPKPFNRSSPDVKFVCQSSSIDFLASQGFDFNKVFRNGIPYLNQEEERQLREQYDEKRSQANGAGALSYVSPNTSKCPVTIPEDQKKFIDQVVEKIEDLLQSEENKNLDLEPCTGFQRKLIYQTLSWKYPKGIHVETLETEKKERYIVISKVDEEERKRREQQKHAKEQEELNDAVGFSRVIHAIANSGKLVIGHNMLLDVMHTVHQFYCPLPADLSEFKEMTTCVFPRLLDTKLMASTQPFKDIINNTSLAELEKRLKETPFNPPKVESAEGFPSYDTASEQLHEAGYDAYITGLCFISMANYLGSFLSPPKIHVSARSKLIEPFFNKLFLMRVMDIPYLNLEGPDLQPKRDHVLHVTFPKEWKTSDLYQLFSAFGNIQISWIDDTSAFVSLSQPEQVKIAVNTSKYAESYRIQTYAEYMGRKQEEKQIKRKWTEDSWKEADSKRLNPQCIPYTLQNHYYRNNSFTAPSTVGKRNLSPSQEEAGLEDGVSGEISDTELEQTDSCAEPLSEGRKKAKKLKRMKKELSPAGSISKNSPATLFEVPDTW
notes: poly(A)-specific ribonuclease (PARN), human, full length; cloned in pET-28a
  binding result: binds
